Laboratory results taken from patent publication US20190134153A1, “IMMUNOMODULATORY EFFECT OF INHALED KINASE INHIBITOR PEPTIDES IN LUNG” (MOERAE MATRIX, INC., priority 2017, published 2019).

Columns and labels:
Assay in all cases: Kinase Profiling Assay
Assay type in all cases: biochemical
Details in all cases: 100 μM
CDK3/cyclinE(h) = CDK3/cyclinE(h) (Homo sapiens, UniProt Q00526)
BTK(R28H)(h) = BTK(R28H)(h) (Homo sapiens, UniProt Q06187, R28H)
PKG1α(h) = target: T1, PKG1α(h) (Homo sapiens, UniProt Q13976)
T1 sequence (Q13976 1-671): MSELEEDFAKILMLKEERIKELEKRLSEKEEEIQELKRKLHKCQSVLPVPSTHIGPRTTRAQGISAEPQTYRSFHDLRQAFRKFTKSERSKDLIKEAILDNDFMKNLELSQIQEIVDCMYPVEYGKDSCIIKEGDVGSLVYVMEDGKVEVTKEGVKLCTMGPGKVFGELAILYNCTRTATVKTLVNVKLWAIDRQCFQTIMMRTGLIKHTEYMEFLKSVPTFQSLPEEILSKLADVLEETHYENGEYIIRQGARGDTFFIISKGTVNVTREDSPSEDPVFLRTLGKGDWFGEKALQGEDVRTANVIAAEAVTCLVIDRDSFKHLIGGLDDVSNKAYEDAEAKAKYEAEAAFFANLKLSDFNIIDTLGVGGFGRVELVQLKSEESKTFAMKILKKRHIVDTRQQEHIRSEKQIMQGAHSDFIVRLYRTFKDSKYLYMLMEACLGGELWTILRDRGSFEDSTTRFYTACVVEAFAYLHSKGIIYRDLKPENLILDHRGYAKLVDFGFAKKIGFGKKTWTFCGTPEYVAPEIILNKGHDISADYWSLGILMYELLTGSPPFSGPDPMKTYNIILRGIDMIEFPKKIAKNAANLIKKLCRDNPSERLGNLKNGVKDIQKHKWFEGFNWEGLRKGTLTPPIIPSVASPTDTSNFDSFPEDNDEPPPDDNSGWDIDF

Mer(h) = target: T2, Mer(h) (Homo sapiens, UniProt Q12866)
T2 sequence (Q12866 21-999): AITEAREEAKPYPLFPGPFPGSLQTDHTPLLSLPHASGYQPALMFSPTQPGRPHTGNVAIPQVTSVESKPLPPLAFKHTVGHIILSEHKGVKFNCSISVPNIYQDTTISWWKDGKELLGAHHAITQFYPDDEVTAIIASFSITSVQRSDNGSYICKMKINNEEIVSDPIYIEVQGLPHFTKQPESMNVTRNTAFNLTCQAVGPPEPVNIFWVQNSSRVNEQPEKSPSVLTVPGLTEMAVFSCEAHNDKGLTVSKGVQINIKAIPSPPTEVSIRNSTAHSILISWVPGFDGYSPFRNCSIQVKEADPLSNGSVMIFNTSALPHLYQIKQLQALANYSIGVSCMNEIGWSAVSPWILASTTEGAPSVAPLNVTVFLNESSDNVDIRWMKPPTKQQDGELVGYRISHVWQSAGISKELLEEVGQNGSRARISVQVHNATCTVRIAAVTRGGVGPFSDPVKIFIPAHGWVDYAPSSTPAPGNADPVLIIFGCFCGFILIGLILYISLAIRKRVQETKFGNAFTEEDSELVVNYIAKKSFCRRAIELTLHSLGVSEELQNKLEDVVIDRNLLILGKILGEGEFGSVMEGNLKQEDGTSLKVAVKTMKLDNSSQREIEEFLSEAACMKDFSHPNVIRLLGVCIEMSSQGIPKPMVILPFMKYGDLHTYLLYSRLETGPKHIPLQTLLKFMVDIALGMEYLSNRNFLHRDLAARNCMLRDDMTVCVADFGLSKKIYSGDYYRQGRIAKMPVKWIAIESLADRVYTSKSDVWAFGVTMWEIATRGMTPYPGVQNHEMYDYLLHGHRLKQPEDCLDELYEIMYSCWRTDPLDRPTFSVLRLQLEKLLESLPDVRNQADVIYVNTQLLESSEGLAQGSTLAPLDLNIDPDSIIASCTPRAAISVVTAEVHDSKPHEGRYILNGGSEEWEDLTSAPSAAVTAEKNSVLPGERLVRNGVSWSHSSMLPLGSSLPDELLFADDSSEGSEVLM

EphB2(h) = target: T3, EphB2(h) (Homo sapiens, UniProt P29323)
T3 sequence (P29323 19-1055): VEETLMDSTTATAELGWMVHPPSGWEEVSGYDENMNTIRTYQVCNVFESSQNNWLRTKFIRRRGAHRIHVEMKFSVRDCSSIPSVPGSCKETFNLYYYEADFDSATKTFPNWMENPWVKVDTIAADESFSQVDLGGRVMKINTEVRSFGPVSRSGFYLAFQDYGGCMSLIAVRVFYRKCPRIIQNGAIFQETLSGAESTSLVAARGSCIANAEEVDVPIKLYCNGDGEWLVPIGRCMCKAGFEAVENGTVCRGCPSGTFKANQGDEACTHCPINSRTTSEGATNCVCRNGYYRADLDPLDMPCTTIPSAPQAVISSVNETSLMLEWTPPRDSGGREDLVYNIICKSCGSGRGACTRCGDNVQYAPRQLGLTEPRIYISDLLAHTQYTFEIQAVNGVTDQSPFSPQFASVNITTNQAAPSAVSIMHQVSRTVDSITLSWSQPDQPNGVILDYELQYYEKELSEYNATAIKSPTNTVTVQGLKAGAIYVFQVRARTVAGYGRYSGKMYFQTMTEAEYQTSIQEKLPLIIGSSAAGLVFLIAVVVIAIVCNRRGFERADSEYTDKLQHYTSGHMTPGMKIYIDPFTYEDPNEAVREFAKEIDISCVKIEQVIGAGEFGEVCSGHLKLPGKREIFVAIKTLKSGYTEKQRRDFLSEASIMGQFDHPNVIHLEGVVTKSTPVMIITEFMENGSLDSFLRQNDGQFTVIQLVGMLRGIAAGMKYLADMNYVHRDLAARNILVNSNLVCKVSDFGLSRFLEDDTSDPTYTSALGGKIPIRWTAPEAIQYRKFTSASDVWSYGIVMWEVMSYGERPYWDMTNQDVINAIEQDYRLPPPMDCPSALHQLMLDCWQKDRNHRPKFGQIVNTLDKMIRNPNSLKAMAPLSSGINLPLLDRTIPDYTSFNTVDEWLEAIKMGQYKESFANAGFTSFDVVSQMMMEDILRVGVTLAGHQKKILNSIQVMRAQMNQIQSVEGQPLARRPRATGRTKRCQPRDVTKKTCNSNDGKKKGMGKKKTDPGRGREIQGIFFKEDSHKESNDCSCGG

SAPK2a(T106M)(h) = SAPK2a(T106M)(h) (Homo sapiens, UniProt Q16539, T106M)
Yes(h) = Yes(h) (Homo sapiens, UniProt P07947)
Chain of Yes(h) (P07947 whole entry): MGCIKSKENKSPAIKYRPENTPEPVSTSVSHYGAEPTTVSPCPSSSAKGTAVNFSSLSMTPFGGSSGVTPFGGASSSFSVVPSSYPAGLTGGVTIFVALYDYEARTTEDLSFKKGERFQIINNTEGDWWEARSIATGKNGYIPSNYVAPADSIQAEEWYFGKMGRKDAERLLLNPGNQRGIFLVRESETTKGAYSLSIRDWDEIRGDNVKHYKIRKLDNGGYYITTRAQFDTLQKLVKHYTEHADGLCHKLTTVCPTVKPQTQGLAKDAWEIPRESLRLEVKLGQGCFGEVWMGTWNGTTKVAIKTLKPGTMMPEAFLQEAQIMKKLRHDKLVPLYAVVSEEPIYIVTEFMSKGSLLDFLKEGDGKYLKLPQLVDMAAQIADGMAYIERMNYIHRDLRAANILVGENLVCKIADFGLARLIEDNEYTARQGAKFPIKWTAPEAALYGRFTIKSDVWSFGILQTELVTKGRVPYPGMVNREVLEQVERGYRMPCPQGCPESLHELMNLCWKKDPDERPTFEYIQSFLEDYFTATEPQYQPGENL

Chain of CDK3/cyclinE(h) (Q00526 whole entry): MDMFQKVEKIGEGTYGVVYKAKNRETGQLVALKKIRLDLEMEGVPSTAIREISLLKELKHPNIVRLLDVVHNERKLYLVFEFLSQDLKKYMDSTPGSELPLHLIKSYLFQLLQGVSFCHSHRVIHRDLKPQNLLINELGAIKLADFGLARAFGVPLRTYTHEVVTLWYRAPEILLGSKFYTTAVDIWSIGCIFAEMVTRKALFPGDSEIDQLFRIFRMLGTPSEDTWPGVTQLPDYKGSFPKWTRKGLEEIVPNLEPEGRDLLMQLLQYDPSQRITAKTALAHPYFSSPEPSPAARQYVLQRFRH
Chain of CDK3/cyclinE(h) (P24864 whole entry partner): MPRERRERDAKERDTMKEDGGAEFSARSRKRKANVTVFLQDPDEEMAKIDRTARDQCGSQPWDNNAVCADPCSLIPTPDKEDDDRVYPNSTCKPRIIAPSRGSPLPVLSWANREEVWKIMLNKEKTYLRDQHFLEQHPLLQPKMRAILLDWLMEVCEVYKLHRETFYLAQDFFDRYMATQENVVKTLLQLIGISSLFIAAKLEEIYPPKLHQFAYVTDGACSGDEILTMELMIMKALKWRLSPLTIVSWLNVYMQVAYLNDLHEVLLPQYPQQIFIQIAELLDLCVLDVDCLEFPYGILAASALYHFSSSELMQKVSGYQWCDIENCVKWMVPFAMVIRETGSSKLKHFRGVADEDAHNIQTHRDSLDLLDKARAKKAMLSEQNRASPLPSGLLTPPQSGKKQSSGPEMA
Chain of SAPK2a(T106M)(h) (Q16539 whole entry T106M): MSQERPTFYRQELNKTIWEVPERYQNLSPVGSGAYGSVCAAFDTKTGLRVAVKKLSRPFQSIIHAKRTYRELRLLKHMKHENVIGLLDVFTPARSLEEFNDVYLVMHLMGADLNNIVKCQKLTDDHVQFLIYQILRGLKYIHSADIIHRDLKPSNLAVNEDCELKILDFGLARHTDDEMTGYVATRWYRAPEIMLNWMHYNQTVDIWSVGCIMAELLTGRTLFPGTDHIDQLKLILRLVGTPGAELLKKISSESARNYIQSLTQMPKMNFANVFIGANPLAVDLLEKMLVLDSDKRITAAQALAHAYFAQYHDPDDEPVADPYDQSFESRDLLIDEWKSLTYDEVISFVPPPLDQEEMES
Chain of BTK(R28H)(h) (Q06187 whole entry R28H): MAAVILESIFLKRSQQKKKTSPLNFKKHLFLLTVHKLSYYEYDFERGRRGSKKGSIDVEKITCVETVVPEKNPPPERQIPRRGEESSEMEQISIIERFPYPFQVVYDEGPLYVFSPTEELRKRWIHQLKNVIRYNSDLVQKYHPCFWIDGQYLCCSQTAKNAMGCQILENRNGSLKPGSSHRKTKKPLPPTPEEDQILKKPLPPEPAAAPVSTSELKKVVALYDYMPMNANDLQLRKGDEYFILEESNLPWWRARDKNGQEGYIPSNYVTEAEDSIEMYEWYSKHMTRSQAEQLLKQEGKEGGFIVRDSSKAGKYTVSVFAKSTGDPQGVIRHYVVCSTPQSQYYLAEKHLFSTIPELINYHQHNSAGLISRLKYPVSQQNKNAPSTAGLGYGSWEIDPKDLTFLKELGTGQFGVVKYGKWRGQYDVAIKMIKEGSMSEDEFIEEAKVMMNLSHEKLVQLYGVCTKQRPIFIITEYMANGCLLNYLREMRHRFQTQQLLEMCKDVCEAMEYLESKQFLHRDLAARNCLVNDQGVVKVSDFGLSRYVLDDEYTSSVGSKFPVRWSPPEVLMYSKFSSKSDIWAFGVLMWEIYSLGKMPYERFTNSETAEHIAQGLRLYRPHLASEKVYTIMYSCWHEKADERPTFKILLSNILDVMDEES

| Sequence | % activity (CDK3/cyclinE(h)) [%] | % activity (BTK(R28H)(h)) [%] | % activity (PKG1α(h)) [%] | % activity (Mer(h)) [%] | % activity (EphB2(h)) [%] | % activity (SAPK2a(T106M)(h)) [%] | % activity (Yes(h)) [%] |
| --- | --- | --- | --- | --- | --- | --- | --- |
| HRRIKAWLKKIKALARQLGVAA [MMI-0500] | 8 | 10 | 25 | 17 | 70 | 32 |  |
| YARAAARQARAKALNRQLGVA [MMI-0200] |  |  | 70 | 90 | 128 | 100 | 93 |
| KAFAKLAARLYRKALARQLGVAA [MMI-0400] | 92 | 24 | 58 | 50 | 22 | 99 | 14 |
| FAKLAARLYRKALARQLGVAA [MMI-0300] | 94 | 74 | 64 | 52 | 18 | 97 | 67 |
